From patent US20260139017A1 (GENERAL HOSPITAL, published 2026) come the findings set out here.

In assay [1] the target is Amyloid beta (Abeta42; beta-Amyloid (1-42)) (UniProt P05067 672-713). In words: cell-based or functional assay.
Assay [2] addresses T1, ApoEr2 (TP320903, OnGene) (UniProt Q14114 33-963, limits assumed).
T1 sequence (looked up): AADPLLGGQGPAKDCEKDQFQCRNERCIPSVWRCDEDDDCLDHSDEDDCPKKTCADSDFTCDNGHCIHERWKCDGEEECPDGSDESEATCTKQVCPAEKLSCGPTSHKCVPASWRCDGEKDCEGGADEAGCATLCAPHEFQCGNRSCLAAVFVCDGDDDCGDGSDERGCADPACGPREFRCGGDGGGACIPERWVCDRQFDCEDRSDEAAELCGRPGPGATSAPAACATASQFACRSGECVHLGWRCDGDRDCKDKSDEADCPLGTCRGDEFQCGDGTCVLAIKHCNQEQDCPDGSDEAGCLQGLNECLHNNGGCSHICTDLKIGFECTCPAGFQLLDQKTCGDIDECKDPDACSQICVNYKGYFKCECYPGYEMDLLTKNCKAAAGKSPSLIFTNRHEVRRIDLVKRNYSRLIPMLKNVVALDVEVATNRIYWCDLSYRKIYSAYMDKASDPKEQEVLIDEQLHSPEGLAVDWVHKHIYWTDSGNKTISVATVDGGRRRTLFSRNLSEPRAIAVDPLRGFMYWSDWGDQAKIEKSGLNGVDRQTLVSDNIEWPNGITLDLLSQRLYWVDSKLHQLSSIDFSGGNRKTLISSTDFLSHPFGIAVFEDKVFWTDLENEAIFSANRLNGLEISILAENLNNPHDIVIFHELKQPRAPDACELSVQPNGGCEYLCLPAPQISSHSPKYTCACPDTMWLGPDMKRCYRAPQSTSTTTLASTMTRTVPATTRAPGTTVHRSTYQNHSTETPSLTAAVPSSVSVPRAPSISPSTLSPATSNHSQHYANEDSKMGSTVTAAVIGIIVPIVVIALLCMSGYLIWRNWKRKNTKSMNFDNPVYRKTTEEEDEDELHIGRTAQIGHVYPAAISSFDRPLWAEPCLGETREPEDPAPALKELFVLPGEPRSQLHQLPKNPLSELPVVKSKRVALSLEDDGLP
Nature of the assay: ELISA on coated receptor. As for the experimental part:
(§1) Enzyme-linked immunosorbent assay (ELISA) was used to quantify changes in binding of RELN variants (media-derived full-length or CTR-RELN) to either VLDLr or ApoEr2 following an optimized version of a previously published protocol (6). Briefly, ELISA strips (DY008, R&D Systems) were coated with one ng/μL (100 μL/well) of VLDLr (8444-VL, R&D) or ApoEr2 (TP320903, OnGene) receptors diluted in 25 mM Tris HCl, 140 mM NaCl, […], two mM CaCl₂), pH 7.4 (TBS-C buffer). After 18 h at four ° C. incubation, plates were blocked one h with three % BSA (22070008-6, Bioworld), 0.05% Tween-20 (Sigma Aldrich) TBS-C buffer. We assessed binding via incubation with 100 μL/well of serial dilutions of recombinant RELN protein (Ser1221-Gln2666, 8546-MR-050, R&D) or RELN variants in TBS-C buffer for one hour at room temperature. For detection, we used goat anti-mouse RELN primary antibody (LS-C793521-100, LS-Bio, 1:2,000, 100 μL/well) as primary antibody for one h at R.T. and (1:10,000; 100 μL/well, donkey anti-goat IgG H&L, HRP, ab6885, Abcam) as secondary antibody for 30 min. at R.T. Between each of the previous steps, plates were washed four times with TBS-C buffer (200 μL/well). Plates were washed three times prior to initiating the colorimetric reaction (DY008, R&D Systems). Stop solution (50 μL/well, DY008, R&D Systems) was added upon five min. incubation and the absorbance of the samples was measured at 450 nm using the Synergy 2 microplate reader (BioTek Instruments). Processing and analysis of the data was done using Gen5 1.11 software and GraphPad Prism, respectively.

Another assay deals with VLDLr (8444-VL, R&D) (UniProt P98155 28-797, limits assumed). In words: ELISA on coated receptor. The method, then:
as §1

In assay [3] the target is T2, Neuropilin 1 (NRP1), R&D 3870-N1-025 (UniProt O14786-2 22-644, biotinylated at a 1:2 molar ratio).
T2 construct: Biotinylated and immobilised on streptavidin biosensor tips; also called Neurophilin 1
T2 sequence (looked up): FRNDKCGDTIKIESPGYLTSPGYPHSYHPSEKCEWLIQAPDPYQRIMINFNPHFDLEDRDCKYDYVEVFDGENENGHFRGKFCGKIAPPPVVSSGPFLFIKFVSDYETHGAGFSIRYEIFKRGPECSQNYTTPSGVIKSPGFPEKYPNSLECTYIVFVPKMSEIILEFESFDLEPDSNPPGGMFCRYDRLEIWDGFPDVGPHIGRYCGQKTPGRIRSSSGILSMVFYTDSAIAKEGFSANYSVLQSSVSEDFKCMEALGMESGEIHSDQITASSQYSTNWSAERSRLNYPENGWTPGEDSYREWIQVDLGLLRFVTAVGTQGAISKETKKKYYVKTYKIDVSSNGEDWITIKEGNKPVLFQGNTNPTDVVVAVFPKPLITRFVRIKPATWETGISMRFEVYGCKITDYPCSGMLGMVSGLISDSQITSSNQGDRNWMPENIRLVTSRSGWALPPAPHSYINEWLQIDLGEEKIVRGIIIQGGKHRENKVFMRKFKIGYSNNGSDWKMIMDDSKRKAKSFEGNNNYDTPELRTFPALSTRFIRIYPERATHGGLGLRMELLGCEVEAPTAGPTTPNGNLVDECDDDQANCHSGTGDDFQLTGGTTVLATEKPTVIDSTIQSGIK
Nature of the assay: BLI, NRP1 on biosensor. As for the experimental part: (§2) Bio-layer interferometry (BLI) was used to assess NRP1-protein kinetics at 30° C. and 1000 rpm agitation using previously published methods. 1 mg/mL NRP1 (R&D 3870-N1-025) was biotinylated at a 1:2 molar ratio, desalted, and immobilized on the SA biosensor tip (Pall ForteBio) surface. This was followed by 1) 180 seconds baseline buffer diluent, 2) loading of the ligand (NRP1), 3) 180 seconds baseline buffer diluent, 4) 240 seconds association (analyte), and 5) 300 seconds disassociation in assay buffer. Assay buffer: SD Buffer (pH7.4 PBS, 0.05% tween20, 0.01% BSA).
(§3) The experimental data were fit with the 1:1 binding model and analyzed with global fitting using Octet Data Analysis software to calculate KD.

Assay [4] addresses T2, Neuropilin 1 (NRP1), R&D 3870-N1-025. Nature of the assay: BLI (Octet), biotinylated NRP1 on SA biosensor, 1:1 global fit. As for the experimental part: as §2, §3

Amyloid beta (Abeta42; beta-Amyloid (1-42)), sequence (P05067 672-713 limits assumed): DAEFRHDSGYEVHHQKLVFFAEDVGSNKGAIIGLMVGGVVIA

On to RKQNYMMNFSRQHGLRDFYNRRRR [Reelin CTR peptide H3447D short], for which, in assay [1], the “Thioflavin T fluorescence assay of Abeta aggregation, fold aggregation against H3447K short” value was roughly 3 fold.

B1: C-terminal region of RELN (CTR-RELN) WT recombinant peptide, long (peptide)
peptide: RKQNYMMNFSRQHGLRHFYNRRRRSLRRYP
notes: also called WT long; C-terminal RELN WT uncleaved
In the case of B1, the binding result in assay [2] is “no binding”; in the assay with VLDLr (8444-VL, R&D) it was “no binding”.

B2: C-terminal region of RELN (CTR-RELN) H3447R recombinant peptide, long (peptide)
peptide: RKQNYMMNFSRQHGLRRFYNRRRRSLRRYP
notes: also called H3447R long; C-terminal RELN H3447R uncleaved
Take B2: the binding result in assay [2] was “no binding”; with VLDLr (8444-VL, R&D), “no binding”.

B3: Fc-fusion CTR-RELN WT (184I pfcn-huIgG2-C-termH3447WT) (Fc fusion)
chain: APLERKSSVECPPCPAPPVAGPSVFLFPPKPKDTLMISRTPEVTCVVVDVSHEDPEVQFNWYVDGVEVHNAKTKPREEQFNSTFRVVSVLTVVHQDWLNGKEYKCKVSNKGLPAPIEKTISKTKGQPREPQVYTLPPSREEMTKNQVSLTCLVKGFYPSDIAVEWESNGQPENNYKTTPPMLDSDGSFFLYSKLTVDKSRWQQGNVFSCSVMHEALHNHYTQKSLSLSPGARTSTRKQNYMMNFSRQHGLRHFYNRRRR
notes: also called Fc-WT
Take B3: the “fold less affinity than VEGF” value in assay [3] is 100 fold. Further, in assay [4], the Kd came out at 610 nM, the koff was 0.00573 s⁻¹ and the kon was 9400 M⁻¹ s⁻¹.

B4: Fc-fusion CTR-RELN H3447R (184J pfcn-huIgG2-C-termH3447R) (Fc fusion)
chain: APLERKSSVECPPCPAPPVAGPSVFLFPPKPKDTLMISRTPEVTCVVVDVSHEDPEVQFNWYVDGVEVHNAKTKPREEQFNSTFRVVSVLTVVHQDWLNGKEYKCKVSNKGLPAPIEKTISKTKGQPREPQVYTLPPSREEMTKNQVSLTCLVKGFYPSDIAVEWESNGQPENNYKTTPPMLDSDGSFFLYSKLTVDKSRWQQGNVFSCSVMHEALHNHYTQKSLSLSPGARTSTRKQNYMMNFSRQHGLRRFYNRRRR
notes: also called Fc-H3447R
In the case of B4, the “fold affinity against wild-type CTR-RELN” value in assay [3] came to 10 fold. In addition, in assay [4], the dissociation constant Kd is 79.3 nM, the koff was found to be 0.00102 s⁻¹ and the kon turned out to be 12900 M⁻¹ s⁻¹.
